From paper PMC10623405, “CsTT8 regulates anthocyanin accumulation in blood orange through alternative splicing transcription” (Horticulture Research, 2023)
Blank lines part the entries; values can stand above or below the molecule they belong to.

Experiments:
[1] = molecular target: CsTT8 (TT8 with the full-length open reading frame) from blood orange 'Tarocco' (Citrus sinensis cv. 'Tarocco' (blood orange))
[2] = molecular target: Δ15-TT8 (alternative splicing transcript of CsTT8 with the fourth exon skipped) (Citrus sinensis cv. 'Tarocco' (blood orange))
Sequence of Δ15-TT8 (alternative splicing transcript of CsTT8 with the fourth exon skipped) (Citrus sinensis cv. 'Tarocco' (blood orange)) (main, as listed by the source mutant): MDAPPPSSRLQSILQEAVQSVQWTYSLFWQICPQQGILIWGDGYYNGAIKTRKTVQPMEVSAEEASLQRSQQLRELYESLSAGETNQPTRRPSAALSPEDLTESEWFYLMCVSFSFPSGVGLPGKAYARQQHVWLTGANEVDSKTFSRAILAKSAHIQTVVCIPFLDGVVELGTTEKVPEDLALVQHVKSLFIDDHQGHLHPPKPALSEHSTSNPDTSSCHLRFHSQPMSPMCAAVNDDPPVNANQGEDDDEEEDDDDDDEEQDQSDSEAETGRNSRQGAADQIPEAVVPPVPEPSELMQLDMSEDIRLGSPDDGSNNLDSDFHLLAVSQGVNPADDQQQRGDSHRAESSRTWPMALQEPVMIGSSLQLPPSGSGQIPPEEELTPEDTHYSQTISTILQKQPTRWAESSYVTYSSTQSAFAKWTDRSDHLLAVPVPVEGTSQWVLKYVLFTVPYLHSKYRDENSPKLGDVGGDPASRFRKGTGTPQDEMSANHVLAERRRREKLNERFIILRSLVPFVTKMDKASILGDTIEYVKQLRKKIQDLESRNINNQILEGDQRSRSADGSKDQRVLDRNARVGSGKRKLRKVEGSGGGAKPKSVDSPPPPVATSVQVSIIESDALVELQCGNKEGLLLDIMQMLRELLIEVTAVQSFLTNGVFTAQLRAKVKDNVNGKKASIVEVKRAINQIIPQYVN

[3] = molecular target: CsTT8 (TT8 with the full-length open reading frame) from blood orange 'Tarocco' (Citrus sinensis cv. 'Tarocco' (blood …, UniProt A0A0U4H1K1 1-694)); assay: cell-based or functional assay
Sequence of CsTT8 (TT8 with the full-length open reading frame) from blood orange 'Tarocco' (Citrus sinensis cv. 'Tarocco' (A0A0U4H1K1 entry or part of it): as the sequence (main, as listed by the source mutant) above

dual luciferase reporter with the PH8 promoter in N. benthamiana leaves, effectors TT8 and MYB5, LUC/REN ratio [1]: 0.34 LUC/REN
Molecule: MYB5 (an MYB-type transcription factor) from sweet orange (natural protein)

dual luciferase reporter with the F3′H promoter in N. benthamiana leaves, effectors Δ15-TT8 and RUBY1, LUC/REN ratio [2]: 0.042 LUC/REN | dual luciferase reporter with the F3′H promoter in N. benthamiana leaves, effectors TT8 and RUBY1, LUC/REN ratio [3]: 0.099 LUC/REN
B1: RUBY1 (MYB-type transcription factor) from blood orange 'Tarocco' (natural protein, UniProt H6U1F1 1-262, looked up)
chain: MADSLGVRKGAWTGEEDDLLRKCIEKYGEAKWHQVPLRAGLHRCRKSCRLRWLNYLNPNIKRGEFAADEVDLILRLHKLLGNRWSLIVGRLPGRTANDVKNFWNTHLRKKVDKCCKNNKEMKAKAEKVEKINIIKPQPRTFAKNSQWLKGKGMTSNNLQLGDYNLGKQSTPSDHHHHHQQQQENETESVWWESFLFGDELDQQGISSSLSRPEEESTTANIFAEKSPVVTKVTENRVIEAGQSCPTDDFAFDAELWDLLNAK
